Experimental data published in publication PMC5942590.
Where two headings read alike, the source gives them in different places.

Columns and labels:
[1] = molecular target: HSV-1 glycoprotein B construct gBΔ71 (residues 72-904) (Herpes Simplex Virus type 1 (HSV-1)) (UniProt P06437); assay: crystal structure
[2] = molecular target: HSV-1 glycoprotein B construct gBΔ71 (residues 72-904) (Herpes Simplex Virus type 1 (HSV-1)) (UniProt P06437); assay: crystal structure; remark: listed apart in the source

**Q.** Which stoichiometry N [1] does the source give for “HSV-1 glycoprotein B construct gBΔ71 (residues 72-904) (from UniProt P06437 72-904) (natural protein)” here?
**A.** 3

**Q.** What about the stoichiometry N [2] of the same substance?
**A.** 3
